Measurements as given in patent publication US20220125947A1 (published 2022).
Residue numbers refer to the chain shown, from its start.

B1: VG9B369 (antibody, human IgG1, kappa, V domains shown)
VH: EVQLLESGPTLVKPTQTLTLTCTFSGFSLSTIGVGVGWIRQPPGKALEWLSLIYWNDDKRYNPSLKSRLTITKDTSKNQVVLTMTNMDPVDTATYYCAHSHDWVHAFDIWGQGTMVTVSS
VL: DIVMTQSPSSLSASVGDRVTITCQASQDISHYLNWYQQKPGKAPKFLIYDASNLDTGVPSRFSGSGSGTDFTFTISSLQPEDIATYYCQQYDNFPLTFGGGTKVEIKR
notes: IgG1, kappa; specificity column: g/d constant
B2: VG9B136 (antibody, human IgG1, kappa, V domains shown)
VH: QVQLQQSGPGLVKPSQTLSLTCAISGDSVSSNRAAWNWIRQSPSKGLEWLGRTYYRSKWYNEYAASVKSRMSINPDTSKNQFSLQLNSVTPEDTALYYCARDLWELREACDIWGQGTMVTVSS
VL: DIVMTQSPSFLSTFVGDRVTITCRASQGISSYLAWYQQKPGKVPKLLIYVASTLQSGVPSRFSGSGSGTEFTLTISSLQPEDFATYYCQQLNSYPFTFGPGTKVDIKR
notes: as for B1
B3: VG9B112 (antibody, human IgG1, kappa, V domains shown)
VH: QVQLQQSGPGLVKPSQTLSLTCAISGDSVSSNSAAWNWIRQSPSRGLEWLGGTYYRSKWFNNYAVSVKSRITINPDTSTNQFSLQLNSVTPADTAVYYCARGEWGLRDAFDIWGQGTMVTVSS
VL: B2 VL with V3Q, T13A, F14S, T20I, S30H, F96W, P100Q, V104L, D105E
notes: as for B1
B4: VG9B125 (antibody, human IgG1, kappa, V domains shown)
VH: EVQLVESGGTLVQPGGSLRLSCAVSGFTFSSYDMNWVRQAPGKGLEWVSYISSSSTAKYYADSVKGRFTISRDNAKNSLYLQMNSLWDEDTAVYYCAREDIVVVTPILQHWGQGTTVTVSS
VL: EIVMTQSPATLSLSPGERAILSCRASQSVSKDLAWYQQKPGQAPRLLIYDASNRATGIPARISGSGSGTDFTLTISSLEPEDFAVYYCQQRINWPLFTFGPGTKVEIKR
notes: as for B1
B5: VG9B144 (antibody, human IgG1, lambda, V domains shown)
VH: QVQLVQSGAEVKKPGASVKVSCKASGYTFTGYYMHWMRQAPGQGLEWMGWINPNSGATNKEQKFQGRVTMTRDTSISTAYMELSRLRSDDTAVYYCAREDDAFDVWGQGTMVTVSS
VL: SSELTQDPAVSVALGQTVRITCQGDNLRNYYATWFQQKPGQAPVLVFFGKNNRPSGIPDRFSGSSSGDTASLTITGAQAEDEADYYCNSRDSSGNHVVFGGGTKLTVLG
notes: IgG1, lambda; specificity column: g/d constant
B6: VG9B387 (antibody, human IgG1, lambda, V domains shown)
VH: EVQLVESGAEVKKPGASVKVSCKASGFTFTGYYLQWVRQAPGQGLEWMGWINPNSGYTDYAQRFQDRVTMTRDTSINTAYMELSRLRSDDTAVYYCARLDDAFDVWGQGTMVTVSS
VL: B5 VL with S2Y, N26S, T33I, F35Y, F47I, D68T, A77T, V97W
notes: as for B5
B7: VG9B379 (antibody, human IgG1, lambda, V domains shown)
VH: EVQLVQSGPEVKKPGASVKVSCKASGYTFTGDYIHWVRQVPGQGLEWMGWINPNSGGTNYAQKFQGRVTMTRDTSISTAFMELSRLRSDDTAVYYCAREGGVAPAAPDAFDIWGQGTMVTVSS
VL: B5 VL with N26S, N29S, T33R, F35Y, L45V, F47I, F48Y, D68N, V97R
notes: as for B5
B8: VG9B189 (antibody, human IgG1, lambda, V domains shown)
VH: EVQLVQSGGGLVKPGASLKLSCAASGFTFSNHGMSWVRQTSDKRLEWVASITRGGDTTYYPDNVKGRFTISRENAKNTLYLQMSSLKSDDTALYYCTRGPLTVGYAMDYWGQGTTVTVSS
VL: QSVVTQPPSASGSPGQSVTISCTGTSSDVGGYNYVSWYQQHPGKAPKLMIYEVSKRPSGVPDRFSGSKSGNTASLTVSGLQAEDEADYYCNSYAGSNNFEVFGGGTKVTVLG
notes: IgG1, lambda; specificity column: Vd2
B9: VG9B410 (antibody, human IgG1, kappa)
heavy: not shown
light: DIQMTQSPSSVSASVGDRVTITCRASQGINSWLAWYQQKPGNAPKLLIYAASSLQSGVPSRFSGIGSGTDFIFTISSLQPEDFASYYCQQANSFPWTFGQGTKVEIKRTVAAPSVFIFPPSDEQLKSGTASVVCLLNNFYPREAKVQWKVDNALQSGNSQESVTEQDSKDSTYSLSSTLTLSKADYEKHKVYACEVTHQGLSSPVTKSFNRGEC
notes: as for B1
B10: VG9B53 (antibody, human IgG1, kappa, V domains shown)
VH: QVQLQESGPGLVKPSETLSLTCTVSGGSISSYYWSWIRQPAGKGLEWIGRIHTIGSINYNPSLKSRVTMSVDTSKNQFSLKLSSVTAADTAVYYCAMEGVGATNYYYGMAVWGRGTMVTVSS
VL: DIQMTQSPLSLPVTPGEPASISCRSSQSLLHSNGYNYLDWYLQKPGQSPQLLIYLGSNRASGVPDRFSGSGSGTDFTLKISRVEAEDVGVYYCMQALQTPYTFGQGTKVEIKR
notes: IgG1, kappa; specificity column: Vd2
B11: VG9B41 (antibody, human IgG1, kappa, V domains shown)
VH: QVQLQESGPQLVRPGASVKISCKASGYSFTTYWMHWVKQRPGQGLEWIGLIDPSDSETRLNQKFKDKATLTVDKSSSTAYMRLSSPTSEDSAVYYCASNRWLLGWGQGTMVTVSS
VL: EIVLTQTPLSSPVTLGQPASISCRSSQSLVHSDGNTYLSWLHQRPGQPPRLLIYKISNRFSGVPDRFSGSGAGTDFTLKISRVETEDVGVYYCVQTREFPLTFGGGTKVEIKR
notes: as for B10
B12: VG9B386 (antibody, human IgG1, kappa, V domains shown)
VH: EVQLVESGGGLVKPGGSLRLSCAASGFTFSSYSMIWVRQAPGKGLEWVSSIGSSSTYIYYADSVRGRFTISRDNAKTSLYLQMNSLRAEDTAMYFCARDGETGGFDYWGQGILVTVSS
VL: EIVMTQSPGTLSLSPGERATLSCRASQSISRSYLAWYQQKPGQPPRLLIYGPSNRATGIPDRFSASGSGTDFTLTNSRLEPEDFAVYYCQQYGSLPLTFGGGTKVEIKR
notes: as for B1
B13: VG9B47 (antibody, human IgG1, kappa, V domains shown)
VH: QVQLVQSGAEVKKPGSSVKVSCKASGGSFSNYAISWMRQAPGQGLEWMGGIIPFFGTPDYAQKFQGRVTITADKSTSTAYMELSSLRSEDTAVYYCSTGGGYGDYDYYYGINVWGQGTMVTVSS
VL: DIVMTQSPLSSPVDLGQPASISCRSSQSLVHSDGNTYLSWLQQRPGQPPRLLIYKISNRFSGVPDRFSGSGAGTDFTLKISRVEAEDVGVYYCMQAKEFPLTLGGGTKVDIKR
notes: as for B1
B14: VG9B157 (antibody, human IgG1, lambda, V domains shown)
VH: B8 VH with V5L, Q6E
VL: SSELTQDPAVSVALGQTVRITCQGDSLRSYYATWYQQKPGQAPILVIYGENNRPSGIPDRFSGSRSGNTASLTITGAQAEDEADYYCNSRDTGDHHLVFGGGTKLTVLG
notes: IgG1, lambda
B15: VG9B453 (antibody, human IgG1, lambda)
heavy: not shown
light: QSALTQPASVSGSPGQSITISCTGTSSDVGGYNYVSWYQQHPGKAPKLMIYEVSNRPSGVSNRFSGSKSGNTASLTISGLQAEDEADYYCSSYTSTSVVFGGGTKVTVLGQPKAAPSVTLFPPSSEELQANKATLVCLISDFYPGAVTVAWKADSSPVKAGVETTTPSKQSNNKYAASSYLSLTPEQWKSHRSYSCQVTHEGSTVEKTVAPTECS
notes: IgG1, lambda
B16: VG9B437 (antibody, human IgG1, lambda)
heavy: not shown
light: B15 light with V106L
notes: IgG1, lambda
B17: VG9B455 (antibody, human IgG1, lambda)
heavy: not shown
light: B15 light with Q1S, S2Y, A3E, V106L
notes: IgG1, lambda
B18: VG9B457 (antibody, human IgG1, lambda)
heavy: not shown
light: B15 light with S2A, A3V, V106L
notes: IgG1, lambda
B19: VG9B450 (antibody, human IgG1, lambda)
heavy: not shown
light: B15 light with A3V, V106L
notes: IgG1, lambda
B20: VG9B434 (antibody, human IgG1, lambda)
heavy: not shown
light: B15 light with A3V, V106L
notes: IgG1, lambda
B21: VG9B438 (antibody, human IgG1, lambda)
heavy: not shown
light: B15 light with Q1S, S2Y, A3E, V106L
notes: IgG1, lambda
B22: VG9B442 (antibody, human IgG1, lambda)
heavy: not shown
light: B15 light
notes: IgG1, lambda
B23: VG9B460 (antibody, human IgG1, lambda)
heavy: not shown
light: B15 light with S2L, A3V, V106L
notes: IgG1, lambda
B24: VG9B443 (antibody, human IgG1, lambda)
heavy: not shown
light: B15 light with V106L
notes: IgG1, lambda
B25: VG9B464 (antibody, human IgG1, lambda)
heavy: not shown
light: B15 light with V106L
notes: IgG1, lambda
B26: VG9B466 (antibody, human IgG1, lambda)
heavy: not shown
light: B15 light with Q1S, S2Y, A3E, V106L
notes: IgG1, lambda
B27: VG9B436 (antibody, human IgG1, lambda)
heavy: not shown
light: B15 light with A3V, V106L
notes: IgG1, lambda

target: T1, γδ T cell receptor on human γδ T cells (human); test: flow cytometry DRC binding 37 C, human γδ T cells
T1 construct: whole, on cells; Target is the γδ TCR on a mixed population of human γδ T cells; also called AG000003021 (γδ T cells)
Protocol: (§1) Binding of antibodies to human γδ T cells or SKW cell lines expressing Vγ9/Vδ2, Vγ9/Vδ2 or Vγ5/Vδ2 was carried out by flow cytometry. Briefly, the cells were centrifuged at 300×g for 5 minutes and the pellet was resuspended in 34 ml fresh media (in RPMI+10% FBS). 50 μL of the cells were then plated (44K cells/well) into assay plates. Samples were incubated for one hour at 37° C. in tissue culture (TC) incubator followed by wash steps by adding 100 μl FACS staining buffer. Secondary detention antibodies (A647 conjugated anti-human IgG Fc specific antibody (2 μg/mL) along with AF488 anti mouse CD3, clone OKT3 at 1 ug/mL) were added at 50 μL/well to appropriate wells according to the plate map. After incubating for 60 minutes at 37° C. in the TC incubator, cells were again washed as described above. This is followed by resuspension in 20 μL/well running buffer containing 1:1000 dilution of Sytox blue dead cell stain and the plates were run on iQue Screener.
(§2) Gating and data analysis: Human anti-human Vγ9 antibody (VG9B2 mAb at 10 nM) was used to mark the gating of positive population. All cells were first gated for singlets on SCS-A vs. SCS-H dot plot, live/dead followed by CD3 positive population, and this subset of CD3 positive population was gated for Vγ9 positive binding using positive control mAb. Cells were also assessed for cell binding of control mAbs by RL1 (A647) Geomeans from the live cell population. Advanced metrics were used and normalization metrics were chosen to calculate fold over background wells containing secondary antibody alone (designated as ‘background’ within ForeCyt settings).

Row | Max. Activity | Binder
1 | 2430 fold over background | B1
2 | 2680 fold over background | B2
3 | 1990 fold over background | B3
4 | 1990 fold over background | B4
5 | 2430 fold over background | B5
6 | 1970 fold over background | B6
7 | 1460 fold over background | B7
8 | 739 fold over background | B8
9 | 2250 fold over background | B9
10 | 536 fold over background | B10
11 | 137 fold over background | B11
12 | 2110 fold over background | B12
13 | 1560 fold over background | B13

target: T2, γδ T cell receptor on human γδ T cells (human); test: flow cytometry, DRC binding 37 C, human γδ T cells
T2 construct: also called AG000003021 (γδ T cells)
Protocol: as §1, §2

Row | Max. Activity | Binder
14 | 1070 fold over background | B14
15 | 1040 fold over background | B15
16 | 885 fold over background | B16
17 | 1000 fold over background | B17
18 | 865 fold over background | B18
19 | 928 fold over background | B19
20 | 804 fold over background | B20
21 | 895 fold over background | B21
22 | 856 fold over background | B22
23 | 767 fold over background | B23
24 | 1010 fold over background | B24
25 | 886 fold over background | B25
26 | 946 fold over background | B26
27 | 812 fold over background | B27
